Tests used:
HeLa Kyoto [1] = test: solubility in G1/S (NP-40 vs SDS abundance) (log2 ratio); higher = more soluble; settings: cell cycle stage: G1/S
HeLa Kyoto [2] = test: solubility change mitosis vs G1/S (difference of NP-40 vs SDS log2 ratios) (log2 ratio difference); higher = more soluble in mitosis
HeLa Kyoto [3] = test: thermal stability score vs G1/S (z-score of summed log2 fold changes over temperatures); higher = more thermally stable than in G1/S
[4] = cell cycle stage: early G1 (4.5 h after nocodazole release)
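Throughout, for solubility change mitosis vs G1/S (difference of NP-40 vs SDS log2 ratios): synchronized HeLa Kyoto cells (double thymidine block for G1/S, nocodazole release for mitosis), protein amounts in NP-40 versus SDS lysates quantified by mass spectrometry, three biological replicates.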
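Throughout, for solubility in G1/S (NP-40 vs SDS abundance): HeLa Kyoto cells arrested at G1/S by double thymidine block, proteins quantified by TMT10plex mass spectrometry in mild NP-40 versus SDS extracts, three biological replicates.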
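Throughout, for thermal stability score vs G1/S (z-score of summed log2 fold changes over temperatures): synchronized HeLa Kyoto cells, proteins quantified by TMT10plex mass spectrometry, three biological replicates, mitosis taken 0.5 h after nocodazole release, G1/S directly after double thymidine block.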

Row | Substance | solubility in G1/S (log2) (HeLa Kyoto [1]) | solubility change mitosis (log2) (HeLa Kyoto [2]) | thermal stability score (HeLa Kyoto [3]; [4]) | thermal stability score (HeLa Kyoto [3]; cell cycle stage: mitosis)
1 | MLQNPQEKSQAYPRRRRPGCYAYRQNPEAIAAAAMYTFLPDNFSPAKPKPSKDLKPLLGSAVLGLLLVLAAVVAWCYYSVSLRKAERLRAELLDLKAGGFSIRNQKGEQVFRLAFRSGALDLDSCSRDGALLGCSLTADGLPLHFFIQTVRPKDTVMCYRVRWEEAAPGRAVEHAMFLGDAAAHWYGGAEMRTQHWPIRLDGQQEPQPFVTSDVYSSDAAFGGILERYWLSSRAAAIKVNDSVPFHLGWNSTERSLRLQARYHDTPYKPPAGRAAAPELSYRVCVGSDVTSIHKYMVRRYFNKPSRVPAPEAFRDPIWSTWALYGRAVDQDKVLRFAQQIRLHHFNSSHLEIDDMYTPAYGDFDFDEVKFPNASDMFRRLRDAGFRVTLWVHPFVNYNSSRFGEGVERELFVREPTGRLPALVRWWNGIGAVLDFTHPKARDWFQGHLRRLRSRYSVASFKFDAGEVSYLPRDFSTYRPLPDPSVWSRRYTEMALPFFSLAEVRVGYQSQNISCFFRLVDRDSVWGYDLGLRSLIPAVLTVSMLGYPFILPDMVGGNAVPQRTAGGDVPERELYIRWLEVAAFMPAMQFSIPPWRYDAEVVAIAQKFAALRASLVAPLLLELAGEVTDTGDPIVRPLWWIAPGDETAHRIDSQFLIGDTLLVAPVLEPGKQERDVYLPAGKWRSYKGELFDKTPVLLTDYPVDLDEIAYFTWAS [KIAA1161] | 0.099 | -0.254 | -4.62 | -3.21
2 | MATPDVSVHMEEVVVVTTPDTAVDGSGVEGVKTVLVTTNLAPHGGDLTEDNMETENAAAAAAAAFTASSQLKEAVLVKMAEEGENLEAEIVYPITCGDSRANLIWRKFVCPGINVKCVQYDEHVISPKEFVHLAGKSTLKDWKRAIRMNGIMLRKIMDSGELDFYQHDKVCSNTCRSTKIDLSGARVSLSSPTSAEYIPLTPAAADVNGSPATITIETCEDPGDWTAAIGDDTFTFWRGLKDAGLLDEVIQEFHQELVETMRGLQQRVQDPPLQLRDAVLLNNIVQNFGMLDLVKKVLASHKCQMDRSREQYARDLAALEQQCDEHRRRAKELKHKSQHLSNVLMTLTPVSLPPPVKRPRLARATSGPAAMASQVLTQSAQLALGPGVPVPQLTSVPLGKVVSTLPSTVLGKGSLQAPPASSPASPLLGGYTVLASSGSTYPSTVEIHPDASSLTVLSTAAVQDGSTVFKVVSPLQLLTLPGLGPTLQNVAQASPGSSTIVTVPAGAAPGPEEHTATIEVAAMAEDHERK [GMEB2] | -0.0692 | 0.0606 | 0.359 | 0.761
3 | MASAAVESFVTKQLDLLELERDAEVEERRSWQENISLKELQSRGVCLLKLQVSSQRTGLYGRLLVTFEPRRYGSAAALPSNSFTSGDIVGLYDAANEGSQLATGILTRVTQKSVTVAFDESHDFQLSLDRENSYRLLKLANDVTYRRLKKALIALKKYHSGPASSLIEVLFGRSAPSPASEIHPLTFFNTCLDTSQKEAVLFALSQKELAIIHGPPGTGKTTTVVEIILQAVKQGLKVLCCAPSNIAVDNLVERLALCKQRILRLGHPARLLESIQQHSLDAVLARSDSAQIVADIRKDIDQVFVKNKKTQDKREKSNFRNEIKLLRKELKEREEAAMLESLTSANVVLATNTGASADGPLKLLPESYFDVVVIDECAQALEASCWIPLLKARKCILAGDHKQLPPTTVSHKAALAGLSLSLMERLAEEYGARVVRTLTVQYRMHQAIMRWASDTMYLGQLTAHSSVARHLLRDLPGVAATEETGVPLLLVDTAGCGLFELEEEDEQSKGNPGEVRLVSLHIQALVDAGVPARDIAVVSPYNLQVDLLRQSLVHRHPELEIKSVDGFQGREKEAVILSFVRSNRKGEVGFLAEDRRINVAVTRARRHVAVICDSRTVNNHAFLKTLVEYFTQHGEVRTAFEYLDDIVPENYSHENSQGSSHAATKPQGPATSTRTGSQRQEGGQEAAAPARQGRKKPAGKSLASEAPSQPSLNGGSPEGVESQDGVDHFRAMIVEFMASKKMQLEFPPSLNSHDRLRVHQIAEEHGLRHDSSGEGKRRFITVSKRAPRPRAALGPPAGTGGPAPLQPVPPTPAQTEQPPREQRGPDQPDLRTLHLERLQRVRSAQGQPASKEQQASGQQKLPEKKKKKAKGHPATDLPTEEDFEALVSAAVKADNTCGFAKCTAGVTTLGQFCQLCSRRYCLSHHLPEIHGCGERARAHARQRISREGVLYAGSGTKNGSLDPAKRAQLQRRLDKKLSELSNQRTSRRKERGT [IGHMBP2] | -0.73 | 0.296 | 0.859 | 0.156
4 | MARPGMERWRDRLALVTGASGGIGAAVARALVQQGLKVVGCARTVGNIEELAAECKSAGYPGTLIPYRCDLSNEEDILSMFSAIRSQHSGVDICINNAGLARPDTLLSGSTSGWKDMFNVNVLALSICTREAYQSMKERNVDDGHIININSMSGHRVLPLSVTHFYSATKYAVTALTEGLRQELREAQTHIRATCISPGVVETQFAFKLHDKDPEKAAATYEQMKCLKPEDVAEAVIYVLSTPAHIQIGDIQMRPTEQVT [DHRS11] | 0.514 | -0.00389 | -0.426 | -1.39
5 | MKKSIGILSPGVALGMAGSAMSSKFFLVALAIFFSFAQVVIEANSWWSLGMNNPVQMSEVYIIGAQPLCSQLAGLSQGQKKLCHLYQDHMQYIGEGAKTGIKECQYQFRHRRWNCSTVDNTSVFGRVMQIGSRETAFTYAVSAAGVVNAMSRACREGELSTCGCSRAARPKDLPRDWLWGGCGDNIDYGYRFAKEFVDARERERIHAKGSYESARILMNLHNNEAGRRTVYNLADVACKCHGVSGSCSLKTCWLQLADFRKVGDALKEKYDSAAAMRLNSRGKLVQVNSRFNSPTTQDLVYIDPSPDYCVRNESTGSLGTQGRLCNKTSEGMDGCELMCCGRGYDQFKTVQTERCHCKFHWCCYVKCKKCTEIVDQFVCK [WNT5A] | -0.0436 | -0.0777 | -0.194 | 0.339
6 | ABCA2 | 0.0925 | -0.105 | 0.174 | -0.253
7 | TACC1 | 0.335 | -0.0581 | -4.04 | -4.77
8 | MTTEQRRSLQAFQDYIRKTLDPTYILSYMAPWFREEEVQYIQAEKNNKGPMEAATLFLKFLLELQEEGWFRGFLDALDHAGYSGLYEAIESWDFKKIEKLEEYRLLLKRLQPEFKTRIIPTDIISDLSECLINQECEEILQICSTKGMMAGAEKLVECLLRSDKENWPKTLKLALEKERNKFSELWIVEKGIKDVETEDLEDKMETSDIQIFYQEDPECQNLSENSCPPSEVSDTNLYSPFKPRNYQLELALPAMKGKNTIICAPTGCGKTFVSLLICEHHLKKFPQGQKGKVVFFANQIPVYEQQKSVFSKYFERHGYRVTGISGATAENVPVEQIVENNDIIILTPQILVNNLKKGTIPSLSIFTLMIFDECHNTSKQHPYNMIMFNYLDQKLGGSSGPLPQVIGLTASVGVGDAKNTDEALDYICKLCASLDASVIATVKHNLEELEQVVYKPQKFFRKVESRISDKFKYIIAQLMRDTESLAKRICKDLENLSQIQNREFGTQKYEQWIVTVQKACMVFQMPDKDEESRICKALFLYTSHLRKYNDALIISEHARMKDALDYLKDFFSNVRAAGFDEIEQDLTQRFEEKLQELESVSRDPSNENPKLEDLCFILQEEYHLNPETITILFVKTRALVDALKNWIEGNPKLSFLKPGILTGRGKTNQNTGMTLPAQKCILDAFKASGDHNILIATSVADEGIDIAQCNLVILYEYVGNVIKMIQTRGRGRARGSKCFLLTSNAGVIEKEQINMYKEKMMNDSILRLQTWDEAVFREKILHIQTHEKFIRDSQEKPKPVPDKENKKLLCRKCKALACYTADVRVIEECHYTVLGDAFKECFVSRPHPKPKQFSSFEKRAKIFCARQNCSHDWGIHVKYKTFEIPVIKIESFVVEDIATGVQTLYSKWKDFHFEKIPFDPAEMSK [DDX58] | -0.211 | -0.199 | 0.775 | 0.756
9 | MPEESSPRRTPQSIPYQDLPHLVNADGQYLFCRYWKPTGTPKALIFVSHGAGEHSGRYEELARMLMGLDLLVFAHDHVGHGQSEGERMVVSDFHVFVRDVLQHVDSMQKDYPGLPVFLLGHSMGGAIAILTAAERPGHFAGMVLISPLVLANPESATTFKVLAAKVLNLVLPNLSLGPIDSSVLSRNKTEVDIYNSDPLICRAGLKVCFGIQLLNAVSRVERALPKLTVPFLLLQGSADRLCDSKGAYLLMELAKSQDKTLKIYEGAYHVLHKELPEVTNSVFHEINMWVSQRTATAGTASPP [MGLL] | 0.347 | -0.16 | 0.0154 | -0.539
10 | MARTTSQLYDAVPIQSSVVLCSCPSPSMVRTQTESSTPPGIPGGSRQGPAMDGTAAEPRPGAGSLQHAQPPPQPRKKRPEDFKFGKILGEGSFSTVVLARELATSREYAIKILEKRHIIKENKVPYVTRERDVMSRLDHPFFVKLYFTFQDDEKLYFGLSYAKNGELLKYIRKIGSFDETCTRFYTAEIVSALEYLHGKGIIHRDLKPENILLNEDMHIQITDFGTAKVLSPESKQARANSFVGTAQYVSPELLTEKSACKSSDLWALGCIIYQLVAGLPPFRAGNEYLIFQKIIKLEYDFPEKFFPKARDLVEKLLVLDATKRLGCEEMEGYGPLKAHPFFESVTWENLHQQTPPKLTAYLPAMSEDDEDCYGNYDNLLSQFGCMQVSSSSSSHSLSASDTGLPQRSGSNIEQYIHDLDSNSFELDLQFSEDEKRLLLEKQAGGNPWHQFVENNLILKMGPVDKRKGLFARRRQLLLTEGPHLYYVDPVNKVLKGEIPWSQELRPEAKNFKTFFVHTPNRTYYLMDPSGNAHKWCRKIQEVWRQRYQSHPDAAVQ [PDPK1] | 0.156 | -0.222 | 1.38 | 0.777
11 | MSSMWSEYTIGGVKIYFPYKAYPSQLAMMNSILRGLNSKQHCLLESPTGSGKSLALLCSALAWQQSLSGKPADEGVSEKAEVQLSCCCACHSKDFTNNDMNQGTSRHFNYPSTPPSERNGTSSTCQDSPEKTTLAAKLSAKKQASIYRDENDDFQVEKKRIRPLETTQQIRKRHCFGTEVHNLDAKVDSGKTVKLNSPLEKINSFSPQKPPGHCSRCCCSTKQGNSQESSNTIKKDHTGKSKIPKIYFGTRTHKQIAQITRELRRTAYSGVPMTILSSRDHTCVHPEVVGNFNRNEKCMELLDGKNGKSCYFYHGVHKISDQHTLQTFQGMCKAWDIEELVSLGKKLKACPYYTARELIQDADIIFCPYNYLLDAQIRESMDLNLKEQVVILDEAHNIEDCARESASYSVTEVQLRFARDELDSMVNNNIRKKDHEPLRAVCCSLINWLEANAEYLVERDYESACKIWSGNEMLLTLHKMGITTATFPILQGHFSAVLQKEEKISPIYGKEEAREVPVISASTQIMLKGLFMVLDYLFRQNSRFADDYKIAIQQTYSWTNQIDISDKNGLLVLPKNKKRSRQKTAVHVLNFWCLNPAVAFSDINGKVQTIVLTSGTLSPMKSFSSELGVTFTIQLEANHIIKNSQVWVGTIGSGPKGRNLCATFQNTETFEFQDEVGALLLSVCQTVSQGILCFLPSYKLLEKLKERWLSTGLWHNLELVKTVIVEPQGGEKTNFDELLQVYYDAIKYKGEKDGALLVAVCRGKVSEGLDFSDDNARAVITIGIPFPNVKDLQVELKRQYNDHHSKLRGLLPGRQWYEIQAYRALNQALGRCIRHRNDWGALILVDDRFRNNPSRYISGLSKWVRQQIQHHSTFESALESLAEFSKKHQKVLNVSIKDRTNIQDNESTLEVTSLKYSTSPYLLEAASHLSPENFVEDEAKICVQELQCPKIITKNSPLPSSIISRKEKNDPVFLEEAGKAEKIVISRSTSPTFNKQTKRVSWSSFNSLGQYFTGKIPKATPELGSSENSASSPPRFKTEKMESKTVLPFTDKCESSNLTVNTSFGSCPQSETIISSLKIDATLTRKNHSEHPLCSEEALDPDIELSLVSEEDKQSTSNRDFETEAEDESIYFTPELYDPEDTDEEKNDLAETDRGNRLANNSDCILAKDLFEIRTIKEVDSAREVKAEDCIDTKLNGILHIEESKIDDIDGNVKTTWINELELGKTHEIEIKNFKPSPSKNKGMFPGFK [BRIP1] | -0.0862 | -0.00076 | 0.36 | 1.88

— the supplement of paper PMC5998384
